Blank lines part the entries; values can stand above or below the molecule they belong to.
Key:
Type in all cases: biochemical
[1] = ω-transaminase activity, forward direction (adipate semialdehyde to 6-aminohexanoate); conditions: cell free extract; 10 mM adipate semialdehyde, 10 mM L-alanine, pH 7.5, 25° C., 4 h; RP-HPLC
Method: (§1) A nucleotide sequence encoding a His-tag was added to the nucleic acid sequences from Chromobacterium violaceum, Pseudomonas aeruginosa, Pseudomonas syringae, Rhodobacter sphaeroides, and Vibrio fluvialis encoding the ω-transaminases of SEQ ID NOs: 7, 8, 9, 10 and 12, respectively (see FIG. 6) such that N-terminal HIS tagged ω-transaminases could be produced. Each of the resulting modified genes was cloned into a pET21a expression vector under control of the T7 promoter and each expression vector was transformed into a BL21[DE3] E. coli host. The resulting recombinant E. coli strains were cultivated at 37° C. in a 250 mL shake flask culture containing 50 mL LB media and antibiotic selection pressure, with shaking at 230 rpm. Each culture was induced overnight at 16° C. using 1 mM IPTG.
(§2) The pellet from each induced shake flask culture was harvested via centrifugation. Each pellet was resuspended and lysed via sonication. The cell debris was separated from the supernatant via centrifugation and the cell free extract was used immediately in enzyme activity assays.
Enzyme activity in the forward direction (i.e., adipate semialdehyde to 6-aminohexanoate) was confirmed for the transaminases of SEQ ID NO 7, SEQ ID NO 8, SEQ ID NO 9, SEQ ID NO 10 and SEQ ID NO 12. Enzyme activity assays were performed in a buffer composed of a final concentration of 50 mM HEPES buffer (pH=7.5), 10 mM adipate semialdehyde, 10 mM L-alanine and 100 μM pyridoxyl 5′ phosphate. Each enzyme activity assay reaction was initiated by adding a cell free extract of the ω-transaminase gene product or the empty vector control to the assay buffer containing the adipate semialdehyde and incubated at 25° C. for 4 h, with shaking at 250 rpm. The formation of pyruvate was quantified via RP-HPLC.

[2] = ω-transaminase activity, reverse direction (6-aminohexanoate to adipate semialdehyde); conditions: cell free extract; 10 mM 6-aminohexanoate, 10 mM pyruvate, pH 7.5, 25° C., 24 h; RP-HPLC
Method: as §1, §2
Enzyme activity assays in the reverse direction (i.e., 6-aminohexanoate to adipate semialdehyde) were performed in a buffer composed of a final concentration of 50 mM HEPES buffer (pH=7.5), 10 mM 6-aminohexanoate, 10 mM pyruvate and […] pyridoxyl 5′ phosphate. Each enzyme activity assay reaction was initiated by adding cell free extract of the ω-transaminase gene product or the empty vector control to the assay buffer containing the 6-aminohexanoate and incubated at 25° C. for 24 h, with shaking at 250 rpm. The formation of L-alanine from pyruvate was quantified via RP-HPLC.

[3] = carboxylate reductase activity (adipate semialdehyde to hexanedial); conditions: purified enzyme with sfp phosphopantetheine transferase; 2 mM adipate semialdehyde, pH 7.5, room temperature, 20 min
Method: The N-terminal His-tagged carboxylate reductase of SEQ ID NO 6 (see Example 2 and FIG. 6) was assayed using adipate semialdehyde as substrate. The enzyme activity assay was performed in triplicate in a buffer composed of a final concentration of 50 mM HEPES buffer (pH=7.5), 2 mM adipate semialdehyde, 10 mM MgCl2, 1 mM ATP and 1 mM NADPH. The enzyme activity assay reaction was initiated by adding purified carboxylate reductase and phosphopantetheine transferase or the empty vector control to the assay buffer containing the adipate semialdehyde and then incubated at room temperature for 20 min. The consumption of NADPH was monitored by absorbance at 340 nm.

B2: SEQ ID NO 8: Pseudomonas aeruginosa ω-transaminase, N-terminal His-tagged (protein, listed as Pseudomonas aeruginosa)
chain: MNARLHATSPLGDADLVRADQAHYMHGYHVFDDHRVNGSLNIAAGDGAYIYDTAGNRYLDAVGGMWCTNIGLGREEMARTVAEQTRLLAYSNPFCDMANPRAIELCRKLAELAPGDLDHVFLTTGGSTAVDTAIRLMHYYQNCRGKRAKKHVITRINAYHGSTFLGMSLGGKSADRPAEFDFLDERIHHLACPYYYRAPEGLGEAEFLDGLVDEFERKILELGADRVGAFISEPVFGSGGVIVPPAGYHRRMWELCQRYDVLYISDEVVTSFGRLGHFFASQAVFGVQPDIILTAKGLTSGYQPLGACIFSRRIWEVIAEPDKGRCFSHGFTYSGHPVACAAALKNIEIIEREGLLAHADEVGRYFEERLQSLRDLPIVGDVRGMRFMACVEFVADKASKALFPESLNIGEWVHLRAQKRGLLVRPIVHLNVMSPPLILTREQVDTVVRVLRESIEETVEDLVRAGHR
modifications: N-terminal His tag
notes: Pseudomonas aeruginosa ω-transaminase, N-terminal His-tagged
ω-transaminase activity: conversion of L-alanine to pyruvate with adipate semialdehyde as substrate, against the empty vector control [1]: accepted adipate semialdehyde as substrate

B4: SEQ ID NO: 6: Segniliparus rotundus carboxylate reductase, N-terminal His-tagged (protein, listed as Segniliparus rotundus)
chain: MTQSHTQGPQASAAHSRLARRAAELLATDPQAAATLPDPEVVRQATRPGLRLAERVDAILSGYADRPALGQRSFQTVKDPITGRSSVELLPTFDTITYRELRERATAIASDLAHHPQAPAKPGDFLASIGFISVDYVAIDIAGVFAGLTAVPLQTGATLATLTAITAETAPTLFAASIEHLPTAVDAVLATPSVRRLLVFDYRAGSDEDREAVEAAKRKIADAGSSVLVDVLDEVIARGKSAPKAPLPPATDAGDDSLSLLIYTSGSTGTPKGAMYPERNVAHFWGGVWAAAFDEDAAPPVPAINITFLPLSHVASRLSLMPTLARGGLMHFVAKSDLSTLFEDLKLARPTNLFLVPRVVEMLYQHYQSELDRRGVQDGTREAEAVKDDLRTGLLGGRILTAGFGSAPLSAELAGFIESLLQIHLVDGYGSTEAGPVWRDGYLVKPPVTDYKLIDVPELGYFSTDSPHPRGELAIKTQTILPGYYKRPETTAEVFDEDGFYLTGDVVAQIGPEQFAYVDRRKNVLKLSQGEFVTLAKLEAAYSSSPLVRQLFVYGSSERSYLLAVIVPTPDALKKFGVGEAAKAALGESLQKIARDEGLQSYEVPRDFIIETDPFTVENGLLSDARKSLRPKLKEHYGERLEAMYKELADGQANELRDIRRGVQQRPTLETVRRAAAAMLGASAAEIKPDAHFTDLGGDSLSALTFSNFLHDLFEVDVPVGVIVSAANTLGSVAEHIDAQLAGGRARPTFATVHGKGSTTIKASDLTLDKFIDEQTLEAAKHLPKPADPPRTVLLTGANGWLGRFLALEWLERLAPAGGKLITIVRGKDAAQAKARLDAAYESGDPKLAGHYQDLAATTLEVLAGDFSEPRLGLDEATWNRLADEVDFISHPGALVNHVLPYNQLFGPNVAGVAEIIKLAITTRIKPVTYLSTVAVAAGVEPSALDEDGDIRTVSAERSVDEGYANGYGNSKWGGEVLLREAHDRTGLPVRVFRSDMILAHQKYTGQVNATDQFTRLVQSLLATGLAPKSFYELDAQGNRQRAHYDGIPVDFTAESITTLGGDGLEGYRSYNVFNPHRDGVGLDEFVDWLIEAGHPITRIDDYDQWLSRFETSLRGLPESKRQASVLPLLHAFARPGPAVDGSPFRNTVFRTDVQKAKIGAEHDIPHLGKALVLKYADDIKQLGLL
modifications: N-terminal His tag
notes: Segniliparus rotundus carboxylate reductase, N-terminal His-tagged
carboxylate reductase activity: consumption of NADPH (absorbance at 340 nm) with adipate semialdehyde as substrate, against the empty vector control [3]: accepted adipate semialdehyde as substrate

B5: SEQ ID NO 7: Chromobacterium violaceum ω-transaminase, N-terminal His-tagged (protein, listed as Chromobacterium violaceum)
chain: MQKQRTTSQWRELDAAHHLHPFTDTASLNQAGARVMTRGEGVYLWDSEGNKIIDGMAGLWCVNVGYGRKDFAEAARRQMEELPFYNTFFKTTHPAVVELSSLLAEVTPAGFDRVFYTNSGSESVDTMIRMVRRYWDVQGKPEKKTLIGRWNGYHGSTIGGASLGGMKYMHEQGDLPIPGMAHIEQPWWYKHGKDMTPDEFGVVAARWLEEKILEIGADKVAAFVGEPIQGAGGVIVPPATYWPEIERICRKYDVLLVADEVICGFGRTGEWFGHQHFGFQPDLFTAAKGLSSGYLPIGAVFVGKRVAEGLIAGGDFNHGFTYSGHPVCAAVAHANVAALRDEGIVQRVKDDIGPYMQKRWRETFSRFEHVDDVRGVGMVQAFTLVKNKAKRELFPDFGEIGTLCRDIFFRNNLIMRACGDHIVSAPPLVMTRAEVDEMLAVAERCLEEFEQTLKARGLA
modifications: N-terminal His tag
notes: Chromobacterium violaceum ω-transaminase, N-terminal His-tagged
ω-transaminase activity: conversion of L-alanine to pyruvate with adipate semialdehyde as substrate, against the empty vector control [1]: accepted adipate semialdehyde as substrate
ω-transaminase activity: conversion of pyruvate to L-alanine with 6-aminohexanoate as substrate, against the empty vector control [2]: accepted 6-aminohexanote as substrate

Continued, in another order:

ω-transaminase activity: conversion of pyruvate to L-alanine with 6-aminohexanoate as substrate, against the empty vector control [2]: accepted 6-aminohexanote as substrate
Molecule: SEQ ID NO 10: Rhodobacter sphaeroides ω-transaminase, N-terminal His-tagged
ω-transaminase activity: conversion of L-alanine to pyruvate with adipate semialdehyde as substrate, against the empty vector control [1]: accepted adipate semialdehyde as substrate

ω-transaminase activity: conversion of pyruvate to L-alanine with 6-aminohexanoate as substrate, against the empty vector control [2]: accepted 6-aminohexanote as substrate
B1: SEQ ID NO 12: Vibrio fluvialis ω-transaminase, N-terminal His-tagged (protein, listed as Vibrio fluvialis)
chain: MNKPQSWEARAETYSLYGFTDMPSLHQRGTVVVTHGEGPYIVDVNGRRYLDANSGLWNMVAGFDHKGLIDAAKAQYERFPGYHAFFGRMSDQTVMLSEKLVEVSPFDSGRVFYTNSGSEANDTMVKMLWFLHAAEGKPQKRKILTRWNAYHGVTAVSASMTGKPYNSVFGLPLPGFVHLTCPHYWRYGEEGETEEQFVARLARELEETIQREGADTIAGFFAEPVMGAGGVIPPAKGYFQAILPILRKYDIPVISDEVICGFGRTGNTWGCVTYDFTPDAIISSKNLTAGFFPMGAVILGPELSKRLETAIEAIEEFPHGFTASGHPVGCAIALKAIDVVMNEGLAENVRRLAPRFEERLKHIAERPNIGEYRGIGFMWALEAVKDKASKTPFDGNLSVSERIANTCTDLGLICRPLGQSVVLCPPFILTEAQMDEMFDKLEKALDKVFAEVA
modifications: N-terminal His tag
notes: Vibrio fluvialis ω-transaminase, N-terminal His-tagged
ω-transaminase activity: conversion of L-alanine to pyruvate with adipate semialdehyde as substrate, against the empty vector control [1]: accepted adipate semialdehyde as substrate

ω-transaminase activity: conversion of pyruvate to L-alanine with 6-aminohexanoate as substrate, against the empty vector control [2]: accepted 6-aminohexanote as substrate
B3: SEQ ID NO 9: Pseudomonas syringae ω-transaminase, N-terminal His-tagged (protein, listed as Pseudomonas syringae)
chain: MSANNPQTLEWQALSSEHHLAPFSDYKQLKEKGPRIITRAEGVYLWDSEGNKILDGMSGLWCVAIGYGREELADAASKQMRELPYYNLFFQTAHPPVLELAKAISDIAPEGMNHVFFTGSGSEGNDTMLRMVRHYWALKGQPNKKTIISRVNGYHGSTVAGASLGGMTYMHEQGDLPIPGVVHIPQPYWFGEGGDMTPDEFGIWAAEQLEKKILELGVENVGAFIAEPIQGAGGVIVPPDSYWPKIKEILSRYDILFAADEVICGFGRTSEWFGSDFYGLRPDMMTIAKGLTSGYVPMGGLIVRDEIVAVLNEGGDFNHGFTYSGHPVAAAVALENIRILREEKIVERVRSETAPYLQKRLRELSDHPLVGEVRGVGLLGAIELVKDKTTRERYTDKGAGMICRTFCFDNGLIMRAVGDTMIIAPPLVISFAQIDELVEKARTCLDLTLAVLQG
modifications: N-terminal His tag
notes: Pseudomonas syringae ω-transaminase, N-terminal His-tagged
ω-transaminase activity: conversion of L-alanine to pyruvate with adipate semialdehyde as substrate, against the empty vector control [1]: accepted adipate semialdehyde as substrate
